Substrate in series [1]: C=C(O[C@@H]1C=C(C(=O)O)C=C[C@H]1O)C(=O)O
Description: coupled fluorimetric assay with PchB (salicylate formation). Type of series: biochemical, Arabidopsis thaliana. The conditions noted are these: 100 mM Tris-HCl pH 7.7, 10 mM MgCl2, 30°C, 1 µM His6-PchB, 100 nM enzyme. The source says:
coupled fluorimetric assay with PchB (salicylate formation) on AtICS1 (His6-AtICS1, ICS1)

Substrate in series [2]: C=C(O[C@@H]1C=C(C(=O)O)C=C[C@H]1O)C(=O)O
Described as above. Type of series: biochemical, Arabidopsis thaliana. The note with it: 100 mM Tris-HCl pH 7.7, 10 mM MgCl2, 30°C, 1 µM His6-PchB, 100 nM enzyme. The source says: coupled fluorimetric assay with PchB (salicylate formation) on AtICS2 (His6-AtICS2, ICS2)
This is another data set of the same source.

B1: AtICS1 (His6-AtICS1, ICS1) (Arabidopsis thaliana) (protein)
chain: MNGCDGDFKTPLGTVETRTMTAVLSPAAATERLISAVSELKSQPPSFSSGVVRLQVPIDQQIGAIDWLQAQNEIQPRCFFSRRSDVGRPDLLLDLANENGNGNGNGTVSSDRNLVSVAGIGSAVFFRDLDPFSHDDWRSIRRFLSSTSPLIRAYGGMRFDPNGKIAVEWEPFGAFYFSVPQVEFNEFGGSSMLAATIAWDDELSWTLENAIEALQETMLQVSSVVMKLRNRSLGVSVLSKNHVPTKGAYFPAVEKALEMINQKSSPLNKVVLARNSRIITDTDIDPIAWLAQLQREGHDAYQFCLQPPGAPAFIGNTPERLFQRTQLGVCSEALAATRPRAASSARDMEIERDLLTSPKDDLEFSIVRENIREKLNGICDRVVVKPQKTVRKLARVQHLYSQLAGRLTKEDDEYKILAALHPTPAVCGLPAEEARLLIKEIESFDRGMYAGPIGFFGGEESEFAVGIRSALVEKGLGALIYAGTGIVAGSDPSSEWNELDLKISQFTKSIEYEATTSLQAIN
notes: transit peptide removed (forward primer encodes MNGCDG start), N-terminal His6 tag from pET-28a TEV, no tag cleavage described; E. coli Rosetta DE3 pLysS; ~60 kDa; monomer
Consider B1, for which, in series [1], the Km (in general, the concentration of substrate that gives half-maximal velocity) stood at 34.3 ± 3.7 µM; the turnover number (kcat) (as a rule, the maximal rate divided by the concentration of active sites) amounted to 38.1 ± 1.5 min⁻¹; the kcat/Km (usually the turnover number divided by the Michaelis constant) came out at 18500 ± 217 M⁻¹ s⁻¹.

B2: AtICS2 (His6-AtICS2, ICS2) (Arabidopsis thaliana) (protein)
chain: MNGCEADHKAPLGTVETRTLSTVPSPAAATERLITAVSDLKSQPPPFSSGIVRLQVPIEQKIGAIDWLHAQNEILPRSFFSRRSDSGRPDLLQDFSSDNGSSDHNPVSVAGIGSAVFFRDLDPFSHDDWRSIRRFLSSKSPLIRAYGGLRFDPTGKIAVEWEHFGSFYFTVPQVEFDEFGGSSMLAATVAWDNELSWTLENAIEALQETMLQVSSVIMRLRRESLGVIVVSKNHVPSEGAYYPAVNNALEIIKDKHSPLSKVVLARSSRIITDTDIDPIAWLARLQCEGQDAYQFCLQPPGAPAFIGNTPERLFHRKHLGVCSEALAATRPRGDSKVREMEIERDLLTSPKDDLEFSIVRENIREKLKTICDRVVVKPHKSVRKLARVQHLYSQLAGQLKREDDEFNILTALHPTPAVCGCPVEEARLLIKQIESFDRGMYAGPIGFFGGGESEFSVGIRSALVEKGLGALIYAGTGIVSGSNPSSEWNELELKISQFTKSLEHESALQPIN
notes: transit peptide removed (forward primer encodes MNGCEA start), N-terminal His6 tag from pET-28a TEV, no tag cleavage described; E. coli Rosetta DE3 pLysS; ~60 kDa; monomer
As for B2, in series [2], the Km is listed as 28.8 ± 6.9 µM, the kcat is 17.0 ± 1.2 min⁻¹ and the kcat/Km came to 9830 ± 1030 M⁻¹ s⁻¹.

The values are drawn from publication PMC5408348, “The biochemical properties of the two Arabidopsis thaliana isochorismate synthases” (Biochemical Journal, 2017).
